These results are taken from paper PMC8354229.

Several values for one entry are separate records, joined by “and”; a condition that tells them apart may be missing. Identical values can stand only once.

Assay [1] addresses HIV-1 Vpr (WT), expressed from pNL4-3unc (UniProt P12520). In words: immunoblot of virions (Vpr incorporation, Vpr/CA ratio, LI-COR quantification). The conditions noted are these: equivalent RT units of virus concentrated by ultracentrifugation through a sucrose cushion; parent: est. 100; read off a plot.
Assay [2] has as its target HIV-1 Gag p6 Mutant 12 (alanine substitutions in the LXXLF motif) (HIV-1 (NL4-3-based proviral plasmid)) (UniProt P12493). In words: virion incorporation (virions pelleted through sucrose, immunoblot); virus from 293T cells transfected with pNL4-3unc proviral plasmids (Gag and Vpr from the same construct); concentrated through a 20% (w/v) sucrose cushion, 2 h, 10,000 g, 4°C; equivalent RT units on SDS-PAGE; anti-Vpr and anti-CA immunoblot; Vpr/CA ratio relative to WT virions (LI-COR).

In assay [3] the target is HIV-1 Gag p6 Mutant 4 (FRFG to alanines) (HIV-1 (NL4-3-based proviral plasmid)) (UniProt P12493). Described as above.
Assay [4] deals with HIV-1 Gag p6 Mutant 11 (LXXL to alanines) (HIV-1 (NL4-3-based proviral plasmid)) (UniProt P12493). The description is as above.
The target of assay [5] is HIV-1 Gag with WT p6, expressed from pNL4-3unc (HIV-1 (NL4-3-based proviral plasmid)) (UniProt P12493). Described as above.
Assay [6] deals with T1, HIV-1 Vpr (WT), expressed from pNL4-3unc (HIV-1 (NL4-3-based proviral plasmid)), P12520.
T1 chain: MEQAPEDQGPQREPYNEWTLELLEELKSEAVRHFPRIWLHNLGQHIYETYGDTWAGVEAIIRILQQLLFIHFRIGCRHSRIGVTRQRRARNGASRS
In words: cross-linking; virions pelleted through sucrose, 1% formaldehyde in PBS 20 min at room temperature, quenched with 250 mM Tris-HCl pH 7.5, pelleted again through sucrose, SDS-PAGE and anti-Vpr immunoblot. The note with it: remark: other sources report otherwise.

As to “HIV-1 Gag with WT p6, expressed from pNL4-3unc (from UniProt P12493) P11A; E12A; E13A; S14A”, the percent of parent in assay [1] came to 62 % WT. In the case of “HIV-1 Gag with WT p6, expressed from pNL4-3unc (from UniProt P12493) I31A; D32A; K33A”, the percent of parent in assay [1] was found to be 90 % WT. Regarding “HIV-1 Vpr (WT), expressed from pNL4-3unc (from UniProt P12520 1-96) (natural protein)”, the Vpr incorporated, % of WT virions (Vpr/CA ratio) in assay [2], in assay [3] and in assay [4] was less than 30% throughout.

For “HIV-1 Gag with WT p6, expressed from pNL4-3unc (from UniProt P12493) P37A; L38A; S40A”, in assay [1], the percent of parent worked out at 62 % WT. Regarding “HIV-1 Gag with WT p6, expressed from pNL4-3unc (from UniProt P12493) K27A; Q28A; E29A; P30A”, the percent of parent in assay [1] was determined as 93 % WT.

Turning to “HIV-1 Gag with WT p6, expressed from pNL4-3unc (from UniProt P12493) T23A; P24A; S25A; Q26A”, the percent of parent in assay [1] was 59 % WT. On to “HIV-1 Gag with WT p6, expressed from pNL4-3unc (from UniProt P12493) E34A; L35A; Y36A”, for which, in assay [1], the percent of parent was 73 % WT. “HIV-1 Gag with WT p6, expressed from pNL4-3unc (from UniProt P12493) P49A; S50A; S51A; Q52A”: the percent of parent in assay [1] came out at 76 % WT. With “HIV-1 Gag with WT p6, expressed from pNL4-3unc (from UniProt P12493) E19A; E20A; T21A; T22A”, the percent of parent in assay [1] stood at 52 % WT. Turning to “HIV-1 Gag with WT p6, expressed from pNL4-3unc (from UniProt P12493) R4A; P5A; E6A”, in assay [1], the percent of parent worked out at 85 % WT. With “HIV-1 Vpr L67A (from UniProt P12520 1-96) (natural protein)”, the fold lower Vpr packaging than the same p6 mutant with WT Vpr in assay [3] and in assay [4] was greater than 10 fold in each case. Further, the fold reduction of Vpr incorporation against WT Vpr in assay [5] was found to be 2 fold.

B1: HIV-1 Vpr (WT), expressed from pNL4-3unc, P12520 1-96 (natural protein)
chain: T1 chain
In the case of B1, the stoichiometry N in assay [6] is 2 and 3.
